Source: patent US20070275900A1

Molecular target: purified CD26 (dipeptidyl-peptidase IV, EC 3.4.14.5) (human) (UniProt P27487)
Experiment: cell-based or functional assay

Chain of purified CD26 (dipeptidyl-peptidase IV, EC 3.4.14.5) (human) (P27487 whole entry, form in doubt): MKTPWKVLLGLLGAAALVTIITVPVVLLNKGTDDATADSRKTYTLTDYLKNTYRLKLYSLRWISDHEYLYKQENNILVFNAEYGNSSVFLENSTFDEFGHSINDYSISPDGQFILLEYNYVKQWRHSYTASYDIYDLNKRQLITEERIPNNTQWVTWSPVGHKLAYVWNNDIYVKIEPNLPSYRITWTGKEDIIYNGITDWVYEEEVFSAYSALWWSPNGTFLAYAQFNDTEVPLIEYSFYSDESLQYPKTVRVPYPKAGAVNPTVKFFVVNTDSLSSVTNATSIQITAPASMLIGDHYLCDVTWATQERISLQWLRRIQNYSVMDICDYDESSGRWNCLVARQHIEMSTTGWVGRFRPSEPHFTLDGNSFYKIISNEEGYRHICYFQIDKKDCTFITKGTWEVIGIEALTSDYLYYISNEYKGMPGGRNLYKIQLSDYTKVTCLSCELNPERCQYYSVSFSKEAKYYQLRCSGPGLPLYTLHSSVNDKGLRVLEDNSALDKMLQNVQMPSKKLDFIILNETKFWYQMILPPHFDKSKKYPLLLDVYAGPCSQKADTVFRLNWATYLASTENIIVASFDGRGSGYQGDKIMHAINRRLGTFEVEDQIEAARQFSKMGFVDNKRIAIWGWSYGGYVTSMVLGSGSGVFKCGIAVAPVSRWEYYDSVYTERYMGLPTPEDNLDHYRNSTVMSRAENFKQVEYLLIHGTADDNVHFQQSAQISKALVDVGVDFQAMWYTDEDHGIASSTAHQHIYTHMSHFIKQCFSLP

inhibition of conversion of 50 µM CAM-405 to CAM-212 by purified CD26, 100 µM diprotin A: > 50%
Substance: Diprotin A (peptide)
